For data set [1], the target named is T1, protein tyrosine phosphatase 1B (PTP-1B) (Homo sapiens, UniProt P18031).
T1 construct: purchased Biomol
T1 sequence (P18031 1-435): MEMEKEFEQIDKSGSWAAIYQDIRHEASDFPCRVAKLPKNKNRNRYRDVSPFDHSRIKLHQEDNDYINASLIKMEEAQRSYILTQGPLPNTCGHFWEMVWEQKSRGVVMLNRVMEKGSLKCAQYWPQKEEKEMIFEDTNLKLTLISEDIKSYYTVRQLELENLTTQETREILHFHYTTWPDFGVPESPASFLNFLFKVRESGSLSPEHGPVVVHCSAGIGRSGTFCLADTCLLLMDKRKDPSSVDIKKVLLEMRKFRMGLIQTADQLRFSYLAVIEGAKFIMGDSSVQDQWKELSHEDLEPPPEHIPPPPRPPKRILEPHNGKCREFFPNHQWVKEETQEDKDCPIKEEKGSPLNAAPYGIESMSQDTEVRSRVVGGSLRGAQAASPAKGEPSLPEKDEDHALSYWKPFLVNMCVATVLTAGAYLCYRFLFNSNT
The data set is described as follows: Protein tyrosine phosphatase 1B (PTP-1B) metal ion mediated superquenching assay, inhibition. The data set is classed as biochemical. Particulars: inhibitor curve; FIG. 7. The protocol: For detection of phosphatase activity:
Recombinant PKA was purchased from Promega. […] Polystyrene amine functionalized beads were obtained from Interfacial Dynamics.
The format was tested for detection of protein tyrosine phosphatase activity 1B (PTP-1B) on a peptide substrate of different length and sequence composition than the one used for PKA.

The subject of data set [2] is T2, Rhodamine-LRRASLG.
T2 sequence: LRRASLG

Data set [3] deals with T3, biotin-LRRASLG.
T3 sequence: LRRASLG

In data set [4] the test system is T4, Rhodamine-LRRA(pS)LG.
T4 sequence: LRRASLG

Data set [5] concerns myelin basic protein (MBP).

In general, IC50 refers to the midpoint of a concentration-inhibition curve. Read a low IC50 as greater potency. In turn, `CCCCCCCCCCCCCCCC(=O)C1=C(O)C(CO)OC1=O` (stereo not shown) [RK-682] gave a half-maximal inhibitory concentration (IC50) in data set [1] of 0.0264 µM. That is a double-digit nanomolar value.
On to Recombinant Protein Kinase A (PKA), for which the “endpoint measurement of PKA enzyme activity (polymer quench)” value in data set [2] was “an increase in polymer quench correlates with enzyme concentration”. Besides, in data set [3], the “two-step PKA endpoint assay (fluorescence quench)” value is recorded as “the assays perform using either synthetic substrates with an N-terminal quencher or using biotinylated substrates to which a streptavidin-fluorescein conjugate is added”.
In data set [4], Trypsin gave a Sample (sensor fluorescence after trypsin reaction) of 42100, a Signal Increase of 34400 and a Signal/Background of 5.42.
kinase PKCα: the “blocking kinase assay (fluorescence turn-on)” value in data set [5] is listed as “The resulting fluorescence correlates with the extent of mbp phosphorylation”.
